Substrate in data set [1]: Cc1cc(=O)oc2cc(O[C@H]3O[C@H](CO)[C@@H](O)[C@H](O)[C@@H]3O)ccc12
Briefly: coupled fluorimetric assay with Aman6 mannosidase (4-MU release). In kind it is biochemical, Saccharomyces cerevisiae. Particulars: acceptor varied 0-10 mM, 1.2 mM GDP-Man, 10 mM MnCl2, 20 mM HEPES pH 7.5, 500 nM enzyme.

Substrate in data set [2]: Nc1nc2c(ncn2[C@@H]2O[C@H](COP(=O)(O)OP(=O)(O)O[C@H]3O[C@H](CO)[C@@H](O)[C@H](O)[C@@H]3O)[C@@H](O)[C@H]2O)c(=O)[nH]1
Described as above. Type of data set: biochemical, Saccharomyces cerevisiae. Particulars: donor varied 0-1.2 mM, 10 mM 4MU-Man, 10 mM MnCl2, 20 mM HEPES pH 7.5, 500 nM enzyme.

B1: ScMnn9 (Saccharomyces cerevisiae S288C) (protein)
chain: EGHIAHYDLNKLHSTSEAAVNKEHILILTPMQTFHQQYWDNLLQLNYPRELIELGFITPRTATGDLALKKLENAIKKVQTDKKTQRFSKITILRQNSQSFDKLMEKERHALDVQKERRAAMALARNELLFSTIGPHTSWVLWLDADIIETPPSLIQDMTKHNKAILAANIYQRFYDEEKKQPSIRPYDFNNWQESDTGLEIASQMGDDEIIVEGYAEIATYRPLMAHFYDANGVPGEEMALDGVGGGCTLVKAEVHRDGAMFPNFPFYHLIETEGFAKMAKRLNYDVFGLPNYLVYHIEEENH
notes: glycosyltransferase domain 93-395, lacking first 92 residues; N-terminal MBP-His6-TEV tag cleaved; E. coli BL21(DE3) pLysS
As usually defined, the kcat is the maximal rate divided by the concentration of active sites. With B1, in data set [1], the Km is listed as 6.5 (±0.3) mM and the catalytic constant (kcat) came to 0.0033 s⁻¹. Further, in data set [2], the Km was 0.5 (± 0.2) mM and the kcat amounted to 0.0633 s⁻¹.
